pEC50: −log10 of the molar value. Like-named read-outs stand apart in the source and are kept apart here.

Experiment [1] has as its target cynomolgus OX40 receptor, cell-expressed (DO11.10-cOX40) (cynomolgus). Nature of the experiment: flow cytometry on DO11.10-cOX40 cells.
The target in experiment [2] is human OX40 receptor, cell-expressed (DO11.10-hOX40) (human) (UniProt P43489). The experiment is described as follows: cell-based or functional assay.
Experiment [3] shares this target. The experiment is described as follows: flow cytometry on DO11.10-hOX40 cells.
Experiment [4] has the same target. The experiment is described as follows: cell-based or functional assay. This is another data set of the same source.
Experiment [5] shares this target. The experiment is described as follows: cell-based or functional assay. This is another data set of the same source.
Experiment [6] has the same target. The experiment is described as follows: cell-based or functional assay. This is another data set of the same source.

human OX40 receptor, cell-expressed (DO11.10-hOX40) (human), sequence (P43489 29-277): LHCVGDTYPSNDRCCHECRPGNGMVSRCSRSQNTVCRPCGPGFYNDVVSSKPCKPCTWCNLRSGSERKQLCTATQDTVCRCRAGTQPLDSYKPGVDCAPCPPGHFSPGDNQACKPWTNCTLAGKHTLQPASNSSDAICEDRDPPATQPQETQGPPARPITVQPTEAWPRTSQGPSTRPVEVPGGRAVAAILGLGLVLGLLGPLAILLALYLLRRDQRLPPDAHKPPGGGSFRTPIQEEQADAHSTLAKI
cynomolgus OX40 receptor, cell-expressed (DO11.10-cOX40) (cynomolgus), sequence (P43489 other isoform, or with tags, fused parts or gaps): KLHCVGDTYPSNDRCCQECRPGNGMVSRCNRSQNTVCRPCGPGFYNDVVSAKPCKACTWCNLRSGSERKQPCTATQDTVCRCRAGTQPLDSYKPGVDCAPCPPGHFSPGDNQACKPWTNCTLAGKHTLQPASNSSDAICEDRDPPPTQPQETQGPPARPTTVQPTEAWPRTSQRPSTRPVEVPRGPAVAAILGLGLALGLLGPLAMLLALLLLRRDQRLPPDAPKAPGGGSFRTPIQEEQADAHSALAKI

G1AA/11D4 (antibody) gave a pEC50 in experiment [1] of 9.67. In experiment [2], this substance came in with an EC50 of IL-2 release, crosslinked (anti-human CH2 mAb) of 0.0493 nM and a Max response, crosslinked of 26700 hIL-2 pg/ml. For the same substance, the pEC50 in experiment [3] is 9.09.

Take G1/11D4 (antibody): the EC50 of IL-2 release, Xlink (anti-hCH2) in experiment [4] stood at 0.000153 nM; in experiment [5], 0.196 nM; in experiment [2], 0.199 nM; in experiment [6] it was 0.14 nM. Besides, the Max response, Xlink (anti-hCH2) turned out to be 25000 mIL-2 pg/ml in experiment [4], 7200 mIL-2 pg/ml in experiment [5], 21900 mIL-2 pg/ml in experiment [2] and 24500 mIL-2 pg/ml in experiment [6]. Besides, in experiment [2], the EC50 of IL-2 release, HPAC cells present, Xlink (anti-hCH2) stood at 0.228 nM. The same substance had a Max response, HPAC cells present, Xlink (anti-hCH2) in experiment [2] of 14800 mIL-2 pg/ml.

For the origin of these results see patent US20250361312A1.
